Laboratory results from US20250127857A1, “A COMPOSITION COMPRISING IL-36 AND/OR IL-18 FOR USE IN TREATING OCULAR DISORDERS” (THE PROVOST, FELLOWS, FOUNDATION SCHOLARS, & THE OTHER …, priority 2021, published 2025).

Key:
Type in all cases: cell-based, human
[1] = tested on: VE-cadherin; assay: Western blot for VE-cadherin protein expression; details: HRMEC, 24 h
Description: (§1) FIG. 6 illustrates IL-36 cytokines alter the protein levels of adherens and tight junction components in endothelial cells, wherein (A, B) are Western blot for VE-cadherin protein expression in response to (A) IL-36α, (B) IL-36β treatment for 24 hours at indicated doses in HRMEC, representative N=4 experiments; (C, D) are Western blot for the expression of tight junction proteins ZO-1, tricellulin and occludin in response to (C) IL-36α and (D) IL-36β treatment at indicated concentrations for 24 hours in HRMEC, representative of N=3 experiments; (E) is rate of flux of 70 kDa FITC dextran through HRMEC transwell monolayer with 6 hr pretreatment of 100 ng/ml IL-36α and/or 10 μM cycloheximide (CHX), with treatment applied to apical and basal chambers, representative of N=3 experiments; (F) is permeability apparent for HRMEC treated with IL-36α and/or 10 μM CHX, calculated as stated previously; (G) is rate of flux of 70 kDa FITC dextran through HRMEC transwell monolayer with 6 hr pretreatment of 100 ng/ml IL-36β and/or 10 μM CHX, with treatment applied to apical and basal chambers, representative of N=3 experiments; (H) is permeability apparent for HRMEC treated with IL-36β and/or CHX, calculated as stated previously, wherein T-tests were performed as statistical analysis;
(§2) Protein was extracted from cells using RIPA buffer containing protease inhibitors (Sigma). […]

[2] = tested on: ZO-1, tricellulin and occludin; assay: Western blot for tight junction proteins; details: HRMEC, 24 h, indicated concentrations
Description: as §1, §2

[3] = tested on: HRMEC transwell monolayer; assay: Trans-endothelial electrical resistance (TEER) measurement; details: 100 ng/ml, 6 hr, vs untreated control
[4] = tested on: HRMEC transwell monolayer; assay: Permeability assay (4 kDa FITC dextran flux, Papp); details: 100 ng/ml, 6 or 24 hour exposure
Description: HRMEC were grown on transwells (Corning) for 5-7 days to polarize. The cells were placed in low serum media and treated with IL-36 cytokines for 6 or 24 hours, before 4 kDa FITC dextran (Sigma) diluted to 1 mg/ml in low serum media was placed in the apical chamber. Sampling aliquots were periodically removed from the basal chamber and placed in a 96 well plate. The basolateral chamber was then replenished with fresh media. This was repeated at 20-minute intervals for 2 hours. The fluorescence of FITC dextran was measured using a fluorescent plate-reader (BioTek) at an excitation wavelength of 485 nm and an emission wavelength of 520 nm. Relative fluorescence units (RFU) were converted to ng/ml using a FITC dextran standard curve and corrected for background fluorescence and serial dilutions over the course of the experiment. The apparent permeability coefficient (Papp) was calculated as follows: […]
where dQ/dT is the apparent rate of FITC dextran appearance in the basolateral chamber, A (cm^2) is the surface area of the insert, C0 (mg/ml) is the initial FITC-dextran concentration in the apical chamber. dQ/dT is the slope (y=mx+c) calculated by plotting the cumulative amount (Q) against time(s).

[5] = tested on: HRMEC; assay: Proliferation assays (nuclei cell count, MTS/PMS); details: 24 hours
Description: HRMEC were seeded on coverslips in 6 well plates at a density of 5×10^4 cells/ml and allowed to grow overnight in growth media. They were then washed in PBS and placed in reduced serum media and incubated with treatment for 24 hour. The coverslip was then washed in PBS, fixed in ice cold methanol and stained with Hoechst (1:10000). The coverslips were then affixed to slides and imaged via fluorescence. N=10 images per slip were taken and averaged to give a cell count per coverslip. For the MTS/PMS assay (Promega) cells were seeded at a density of 5×10^4 cells/ml in a 96 well plate. They were allowed to grow overnight in complete growth media before being washed and placed in low-serum media with the treatment indicated for 24 hours before the MTS/PMS assay was carried out as per manufacturer's protocol.

[6] = tested on: VEGFR2; assay: qPCR of VEGFR2 expression in HRMEC treated with IL-36 cytokines; details: treatment over timepoints
Description: Primers used were sourced from Sigma.

[7] = tested on: HRMEC; assay: HRMEC scratch wound healing / migration with IL-36 cytokines; details: treatment applied at time of scratch, 100 ng/ml
Description: FIG. 4 illustrates IL-36 cytokines promote endothelial cell migration, wherein (A, B) are representational images of the HRMEC ‘scratch’ healing with (A) IL-36α (B) IL-36β treatment compared to control at 10× magnification, wherein purple dotted lines equate to the size of the wound as imaged using Image J; (C) is rate of wound healing in HRMEC treated with IL-36α expressed as % wound closure, representational of N=4 experiments, wherein two-way ANOVA was performed as statistical test; (D) is a comparison of the level of wound healing between untreated (unt.) and 100 ng/ml IL-36α at 4 and 24 hr post scratch, consolidated N=4 experiments, wherein two-way ANOVA with multiple comparison was performed as statistical test; (E) is rate of wound healing in HRMEC treated with IL-36β expressed as % wound closure, representational of N=4 experiments, wherein two-way ANOVA with multiple comparison performed as statistical test; (F) is a comparison of the level of wound healing between no treatment and 100 ng/ml IL-36β at 4 and 24 hr post scratch, consolidated N=4 experiments, wherein two-way ANOVA with multiple comparison was performed as statistical test;
Cells were seeded on to a 12-well plate and grown until they reached confluency. […] The area within the scratch was quantified using ImageJ software, and each timepoint was normalised to its baseline and expressed as % closure.

[8] = tested on: HRMEC; assay: Tube formation assay (Matrigel); details: HRMEC on matrigel, 100 ng/ml, 4 hours, vs unstimulated control
Description: Cells were seeded 2 days prior to the experiment in a T75 in complete growth media and allowed to become ˜80% confluent. They were placed in low serum media overnight prior to use in the experiment. 96 well plates were coated with 60 μl of Matrigel Basement Membrane Matrix (Corning) and placed in a 370C incubator for 30 minutes to set as per manufacturer's instructions. HRMEC were then seeded onto the plates at a density of 8×10^4 cells/ml and treated as indicated with cytokine in triplicate. The plates were placed in an Incucyte and phase contrast images of the wells were taken at 10× for 30 minute intervals. The angiogenesis analyser plug-in for ImageJ was used to analyse the images.

[9] = tested on: HRMEC transwell monolayer; assay: Inhibition of translation (cycloheximide) with 70 kDa FITC dextran flux; details: 100 ng/ml cytokine plus 10 μM cycloheximide (CHX), 6 hr
Description: HRMEC were grown in transwells as above. Once polarised, HRMEC were treated with 10 μM of the translation inhibitor cycloheximide (Sigma) and/or IL-36 cytokine. 70 kDa FITC dextran (Sigma) diluted to 1 mg/ml in low serum media was placed in apical chamber and performing a FITC flux assay as described above.

B1: IL-36α: recombinant human (rh) IL-36α (Peprotech) (protein, UniProt Q9UHA7 6-158, looked up)
Interleukin-36 alpha: KIDTPQQGSIQDINHRVWVLQDQTLIAVPRKDRMSPVTIALISCRHVETLEKDRGNPIYLGLNGLNLCLMCAKVGDQPTLQLKEKDIMDLYNQPEPVKSFLFYHSQSGRNSTFESVAFPGWFIAVSSEGGCPLILTQELGKANTTDFGLTMLF
With B1 the VE-cadherin protein expression [1] was “Increased expression of VE-cadherin”, the “expression of ZO-1, tricellulin and occludin protein” value [2] was “dose dependent increase in expression” and the TEER [3] was “significantly increased TEER”. For the same molecule, the “rate of FITC-dextran migrating across the HRMEC monolayer” value [4] was “notably decreased”, the “number of cells (stained nuclei count)” value ([5]; 100 ng/ml) was “increase in the number of cells” and the “proliferation (MTS/PMS assay)” value ([5]; 50 or 100 ng/ml) was “significant increase in proliferation”. For the same molecule, the “proliferation compared with VEGF (MTS/PMS assay)” value ([5]; VEGF 50 ng/ml positive control) was “neither cytokine was as effective as VEGF alone”, the VEGFR2 expression [6] was “reduce VEGFR2 expression” and the “rate of wound closure and cell migration” value [7] was “increased the rate of wound closure and cell migration significantly”. The length of tubes [8] was “potential ability to increase the length of the tubes” and the “IL-36-dependent barrier enhancement under inhibition of protein translation” value [9] was “absolute loss”.
